What was measured:
LL-37 (…) (human) = assay: cell-based or functional assay
[1] = target: oligopeptide-10 (HB64), …-NH2; assay: cell-based or functional assay
[2] = system: LL-37 (LLGDFFRKSKEKIGKEFKRIVQRIKDFLRNLVPRTES)
[3] = system: T1, oligopeptide-10 (HB64), FAKALKALLKALKAL-NH2
T1 sequence: FAKALKALLKALKAL

[4] = target: hexapeptide-21 (HB168), FALLKL-NH2; assay: cell-based or functional assay
[5] = target: HB1345, decanoyl-KFKWPW-NH2; assay: cell-based or functional assay

chymotrypsin (Sigma-Aldrich) (enzyme) gave a Survival of peptide (1 mg/mL) with chymotrypsin 22 µg/mL, no inhibitor, LC/MS, Expt. 39 (LL-37 (…) (human)) of under 1 h and a Survival of peptide (1 mg/mL) with chymotrypsin 25 µg/mL, no inhibitor, LC/MS, Expt. 34 [1] of under 1 h.

elastase (Sigma-Aldrich) (enzyme) was tested, and the Survival of peptide (1 mg/mL) with elastase 25 µg/mL, no inhibitor, LC/MS, Expt. 22 [1] was under 1 h.

For kallikrein (Sigma-Aldrich) (enzyme), the Survival of peptide (1 mg/mL) with kallikrein 22 µg/mL, no inhibitor, LC/MS, Expt. 41 (LL-37 (…) (human)) was under 4 h, the Survival of peptide (1 mg/mL) with kallikrein 22 µg/mL, no inhibitor, LC/MS, Expt. 47 (LL-37 (…) (human)) was under 4 h and the Survival of peptide (1 mg/mL) with kallikrein 22 µg/mL, no inhibitor, LC/MS, Expt. 49 (LL-37 (…) (human)) was under 1 h. The Survival of peptide (1 mg/mL) with kallikrein 22 µg/mL, no inhibitor, LC/MS, Expt. 55 (LL-37 (…) (human)) was under 1 h and the Survival of peptide (1 mg/mL) with kallikrein 25 µg/mL, no inhibitor, LC/MS, Expt. 27 [1] was under 24 h.

For plasmin (Sigma-Aldrich), the “TIC trace and mass spectrum (LC/MS) after 1-hour incubation” value [2] was “the molecular weight of parent peptide LL-37 was undetectable” and the “TIC and XIC traces (LC/MS) after a 4-hour exposure” value [3] was “while most of the HB64 peptide was degraded, some parent peptide could still be detected”.

plasmin (Sigma-Aldrich) (enzyme) showed a Survival of peptide (1 mg/mL) with plasmin 22 µg/mL, no inhibitor, LC/MS, Expt. 37 (LL-37 (…) (human)) of under 1 h, a Survival of peptide (1 mg/mL) with plasmin 22 µg/mL, no inhibitor, LC/MS, Expt. 38 (LL-37 (…) (human)) of under 45 min and a Survival of peptide (1 mg/mL) with plasmin 20 µg/mL, no inhibitor, LC/MS, Expt. 45 [1] of under 4 h. It also gave a Survival of peptide (1 mg/mL) with plasmin 25 µg/mL, no inhibitor, LC/MS, Expt. 25 [1] of under 4 h, a Survival of peptide (1 mg/mL) with plasmin 25 µg/mL, no inhibitor, LC/MS, Expt. 30 [1] of under 6 h and a Survival of peptide (1 mg/mL) with plasmin 46 µg/mL, no inhibitor, LC/MS, Expt. 32 [1] of under 4 h.

trypsin (Sigma-Aldrich) was tested, and the “TIC traces (LC/MS) of peptide degradation at time zero, 1 hour and 23 hours” value [3] was “the parent peak (represents the full-length, non-degraded peptide) in the TIC traces was reduced over time and peaks for various breakdown products increased in intensity over time”.

For trypsin (Sigma-Aldrich) (enzyme), the Survival of peptide (1 mg/mL) with trypsin 25 µg/mL, no inhibitor, LC/MS, Expt. 6 [4] was under 1 h, the Survival of peptide (1 mg/mL) with trypsin 25 µg/mL, no inhibitor, LC/MS, Expt. 8 [5] was under 1 h and the Survival of peptide (1 mg/mL) with trypsin 25 µg/mL, no inhibitor, LC/MS, Expt. 4 [1] was under 1 h. The Survival of peptide (1 mg/mL) with trypsin 25 µg/mL, no inhibitor, LC/MS, Expt. 10 [1] was under 1 h and the Survival of peptide (1 mg/mL) with trypsin 25 µg/mL, no inhibitor, LC/MS, Expt. 12 [1] was under 1 h.

Substance urokinase (enzyme) has a Survival of peptide (1 mg/mL) with urokinase 22 µg/mL, no inhibitor, LC/MS, Expt. 51 (LL-37 (…) (human)) of under 24 h and a Survival of peptide (1 mg/mL) with urokinase 22 µg/mL, no inhibitor, LC/MS, Expt. 53 (LL-37 (…) (human)) of under 24 h.
